# Results from IntAct's records for PubMed 32761762.
# B1: NAD-dependent protein deacetylase sirtuin-1 (Homo sapiens), Q96EB6 (parent)
# chain: MADEAALALQPGGSPSAAGADREAASSPAGEPLRKRPRRDGPGLERSPGEPGGAAPEREVPAAARGCPGAAAAALWREAEAEAAAAGGEQEAQATAAAGEGDNGPGLQGPSREPPLADNLYDEDDDDEGEEEEEAAAAAIGYRDNLLFGDEIITNGFHSCESDEEDRASHASSSDWTPRPRIGPYTFVQQHLMIGTDPRTILKDLLPETIPPPELDDMTLWQIVINILSEPPKRKKRKDINTIEDAVKLLQECKKIIVLTGAGVSVSCGIPDFRSRDGIYARLAVDFPDLPDPQAMFDIEYFRKDPRPFFKFAKEIYPGQFQPSLCHKFIALSDKEGKLLRNYTQNIDTLEQVAGIQRIIQCHGSFATASCLICKYKVDCEAVRGDIFNQVVPRCPRCPADEPLAIMKPEIVFFGENLPEQFHRAMKYDKDEVDLLIVIGSSLKVRPVALIPSSIPHEVPQILINREPLPHLHFDVELLGDCDVIINELCHRLGGEYAKLCCNPVKLSEITEKPPRTQKELAYLSELPPTPLHVSEDSSSPERTSPPDSSVIVTLLDQAAKSNDDLDVSESKGCMEEKPQEVQTSRNVESIAEQMENPDLKNVGSSTGEKNERTSVAGTVRKCWPNRVAKEQISRRLDGNQYLFLPPNRYIFHGAEVYSDSEDDVLSSSSCGSNSDSGTCQSPSLEEPMEDESEIEEFYNGLEDEPDVPERAGGAGFGTDGDDQEAINEAISVKQEVTDMNYPSNKS
# partner: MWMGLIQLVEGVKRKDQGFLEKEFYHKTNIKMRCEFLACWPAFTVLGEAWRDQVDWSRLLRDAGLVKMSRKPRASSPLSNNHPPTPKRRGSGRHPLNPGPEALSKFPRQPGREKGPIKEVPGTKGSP
# Variants of: B1
# Conditions: with csag2_human CSAG2, Q9Y5P2
row,effect of a mutation on the interaction,Variant
1,decreasing interaction,H363Y
